According to publication PMC9640623, “SAMHD1 deacetylation by SIRT1 promotes DNA end resection by facilitating DNA binding at double-strand breaks” (Nature Communications, 2021):

Molecular target: T1, 6xHis-SAMHD1 wild-type (full-length, recombinant) (human, UniProt Q9Y3Z3 1-626)
T1 construct: SAMHD1, full-length, from pET14b-6xHis-SAMHD1 (gift from Dr. Baek Kim); with N-terminal His tag and linker region, calculated molecular weight 74 kDa; Tetramer only stated after preincubation with dGTP; also called recombinant SAMHD1; SAMHD1 WT protein; source: E. coli BL21 Rosetta, purified (His-Trap, Superdex 200 SEC); not shown: His6, N-terminal, kept
T1 sequence (Q9Y3Z3 whole entry): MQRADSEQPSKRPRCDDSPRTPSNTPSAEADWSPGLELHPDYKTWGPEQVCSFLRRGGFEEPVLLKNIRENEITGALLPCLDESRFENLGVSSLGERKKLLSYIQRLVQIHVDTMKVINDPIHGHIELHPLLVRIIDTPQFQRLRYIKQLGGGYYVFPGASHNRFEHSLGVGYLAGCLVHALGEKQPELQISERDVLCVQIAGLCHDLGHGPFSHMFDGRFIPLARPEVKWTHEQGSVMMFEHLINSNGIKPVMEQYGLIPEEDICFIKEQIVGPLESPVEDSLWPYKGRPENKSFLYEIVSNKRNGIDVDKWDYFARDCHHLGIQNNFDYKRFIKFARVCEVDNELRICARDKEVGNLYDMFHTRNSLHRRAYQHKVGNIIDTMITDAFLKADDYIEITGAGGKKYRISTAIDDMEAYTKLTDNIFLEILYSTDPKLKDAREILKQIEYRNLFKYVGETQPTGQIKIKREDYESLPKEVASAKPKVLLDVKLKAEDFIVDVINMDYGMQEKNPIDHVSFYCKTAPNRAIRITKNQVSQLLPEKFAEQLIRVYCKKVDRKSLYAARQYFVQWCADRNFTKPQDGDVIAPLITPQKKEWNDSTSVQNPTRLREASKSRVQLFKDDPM
Assay: pull-down; GST-SIRT1 (193-741) pre-incubated with glutathione-agarose beads in 50 mM Tris-Cl pH 8, 150 mM NaCl, protease inhibitors, 1 h at 4 °C; recombinant SAMHD1 added for 2 h at 4 °C; blots with anti-SAMHD1 or anti-GST
Conditions: both partners purified

B1: GST-SIRT1 (containing amino acids 193-741 of SIRT1) (domain or fragment, UniProt Q96EB6 193-741, looked up)
chain: MIGTDPRTILKDLLPETIPPPELDDMTLWQIVINILSEPPKRKKRKDINTIEDAVKLLQECKKIIVLTGAGVSVSCGIPDFRSRDGIYARLAVDFPDLPDPQAMFDIEYFRKDPRPFFKFAKEIYPGQFQPSLCHKFIALSDKEGKLLRNYTQNIDTLEQVAGIQRIIQCHGSFATASCLICKYKVDCEAVRGDIFNQVVPRCPRCPADEPLAIMKPEIVFFGENLPEQFHRAMKYDKDEVDLLIVIGSSLKVRPVALIPSSIPHEVPQILINREPLPHLHFDVELLGDCDVIINELCHRLGGEYAKLCCNPVKLSEITEKPPRTQKELAYLSELPPTPLHVSEDSSSPERTSPPDSSVIVTLLDQAAKSNDDLDVSESKGCMEEKPQEVQTSRNVESIAEQMENPDLKNVGSSTGEKNERTSVAGTVRKCWPNRVAKEQISRRLDGNQYLFLPPNRYIFHGAEVYSDSEDDVLSSSSCGSNSDSGTCQSPSLEEPMEDESEIEEFYNGLEDEPDVPERAGGAGFGTDGDDQEAINEAISVKQEVTDMN
notes: SIRT1 amino acids 193-741, recombinant, lacking N-terminal amino acids 1-192; The results call it bacterially-purified; also called GST-SIRT1 (lacking N-terminal amino acids 1–192); source: bought: Active Motif # 31533
Question: Does B1 bind?
Answer: binds
